Experimental data taken from US9637543B2, “HER3 antibodies and uses thereof” (THE UAB RESEARCH FOUNDATION, priority 2011, dated 2017).
“Also recorded” adds a separate entry of the source.

Legend:
recombinant soluble HER3 [1] = molecular target: T1, recombinant soluble HER3 (Homo sapiens, UniProt P21860); test: ELISA for blocking of NRG1 binding to HER3; conditions: 100 ng/ml biotin-conjugated NRG1, increasing antibody concentrations
T1 construct: coated with 1 μg/ml of recombinant soluble HER3
Source text: (§1) The binding of NRG1 to HER3 (vertical axis) was detected by HRP-streptavidin. […] NRG1 binding was detected by PE-streptavidin. The mean fluorescent intensities (MFI) of NRG1 bound are presented.
(§2) The binding of NRG1 to HER3 was detected by HRP-streptavidin. […] Thus, the 1A5 antibody is herein referred to as a ligand-independent antibody. […] Thus, the 3D4 antibody is herein referred to as a ligand-dependent antibody. […] NRG1 binding was detected by PE-streptavidin.

[2] = molecular target: T2, HER3-transfected SP 2/0 cells (Homo sapiens, UniProt P21860); test: Flow cytometry for blocking of NRG1 binding to HER3; conditions: 100 ng/ml biotin-conjugated NRG1, increasing antibody concentrations
T2 construct: expressed in transfected cells; host or cells: SP 2/0 cells
Source text: as §1, §2

[3] = molecular target: T3, HER3 (extracellular domain) (Homo sapiens, UniProt P21860); test: ELISA binding specificity on recombinant soluble EGFR, HER2, HER3; conditions: plate coated with 1 μg/ml recombinant soluble EGFR, HER2 or HER3 extracellular domain
T3 construct: recombinant soluble EGFR, HER2, or the extracellular domain of HER3
Description: (§3) The average OD values of triplicates are presented. The values for egFR are superimposed on the values for HER2. […] EGFR, HER2 or HER3-transfected SP 2/0 cells were stained with 1 μg/ml of purified antibody, followed by PE-goat anti-mouse IgG.
(§4) An ELISA plate was coated with 1 μg/ml of recombinant soluble EGFR, HER2, or the extracellular domain of HER3.

HER2 [4] = molecular target: T4, HER2 (Homo sapiens, UniProt P04626); test: HER2 autophosphorylation in pancreatic cancer cell lines; format: cell-based; parameters: endogenous in cells
recombinant soluble HER3 [5] = molecular target: T1, recombinant soluble HER3; test: Sandwich ELISA for epitopes (1A5 capture, HRP-3D4 detection); format: binding; conditions: plate coated with 2 μg/ml 1A5, 200 ng/ml HRP-conjugated 3D4
Description: An ELISA plate was coated with 2 μg/ml of purified 1A5 and then incubated with indicated concentrations of recombinant soluble HER3 in the presence of 200 ng/ml HRP-conjugated 3D4. The binding of 3D4 to HER3 was detected by chemiluminescence substrate. The average counts per second of triplicates are presented.
An ELISA plate was coated with 2 μg/ml of purified 1A5 and then incubated with increasing concentrations of HER3 in the presence of 200 ng/ml HRP-conjugated 3D4. The binding of 3D4 antibody to HER3 was detected by chemiluminescence.

HER3 [6] = molecular target: T5, HER3 (Homo sapiens, UniProt P21860); test: HER3 autophosphorylation in pancreatic cancer cell lines; format: cell-based; parameters: endogenous in cells; host or cells: N87, BT474, ZR75-30, Panc 2.03, A549 and a panel of human cancer cell lines; conditions: single agents
[7] = system: HT29 human colon cancer xenograft; test: HT29 human colon cancer xenograft model; format: in vivo
[8] = system: A549 human lung cancer xenograft; test: A549 human lung cancer xenograft model; format: in vivo
HER3 [9] = molecular target: T5, HER3; test: Ligand-independent activation (autophosphorylation) of HER3 in cancer cells, ELISA; format: cell-based; parameters: endogenous in cells; host or cells: N87, BT474, ZR75-30, Panc 2.03
Description: The ELISA plate was coated with 3F8 anti-HER3 antibody (recognizing a different epitope than 1A5 and 3D4) to capture total HER3 (Total HER3, right graph for FIGS. 4A-4D). […] The total HER3 was detected by HRP-conjugated 1E8 anti-HER3 antibody. The tyrosine-phosphorylated HER3 and total HER3 levels were then measured by chemiluminescence.
The ELISA plate was coated with 3F8 anti-HER3 antibody (recognizing a different epitope than the 1A5 antibody) to capture total HER3.

[10] = system: N87 human gastric cancer xenograft; test: N87 human gastric cancer xenograft model; format: in vivo; conditions: in combination with lapatinib
HER2 [11] = molecular target: T4, HER2; test: HER2 tyrosine phosphorylation ELISA, antibodies with or without lapatinib; format: cell-based; parameters: endogenous in cells; host or cells: N87 gastric cancer cells; ZR75-30 breast cancer cells; conditions: 24 hours, without lapatinib
[12] = system: DR5-apoptosis resistant human breast cancer ZR75-1 cell line; test: Functional screen for apoptosis of DR5-resistant cells; format: cell-based; conditions: in the presence of an agonistic DR5-antibody selected from TRA-8 or CTB006
Source text: In a functional screen of a hybridoma library made against the DR5-apoptosis resistant human breast cancer ZR75-1 cell line, the 1A5 antibody was identified. […] The target of the 1A5 antibody was identified to be HER3 by immunoprecipitation with the 1A5 antibody and subsequent mass spectrometry analysis.

[13] = molecular target: T2, HER3-transfected SP 2/0 cells; test: Flow cytometry binding specificity on transfected SP 2/0 cells; conditions: EGFR, HER2 or HER3 transfected SP2/0 cells, 1 μg/ml purified antibody
Description: as §3, §4

[14] = system: MKN28 human gastric cancer xenograft; test: MKN28 human gastric cancer xenograft model; format: in vivo; conditions: in combination with lapatinib
EGFR [15] = molecular target: T6, EGFR (Homo sapiens, UniProt P00533); test: EGFR tyrosine phosphorylation ELISA, antibodies with or without tyrosine kinase inhibitor; conditions: 24 hours
HER3 [16] = molecular target: T5, HER3; test: Ligand-dependent (NRG1) activation of HER3 in cancer cells, ELISA; format: cell-based; parameters: endogenous in cells; host or cells: N87, BT474, ZR75-30, Panc 2.03; conditions: N87, BT474, ZR75-30, Panc 2.03 cells; antibody 24 hours, then 100 pg/ml NRG1 1 hour
Source text: (§5) The ELISA plate was coated with 3F8 anti-HER3 antibody (recognizing a different epitope than 1A5 and 3D4) to capture total HER3.
as §5
An ELISA plate was coated with 3F8 anti-HER3 antibody to capture total HER3.

EGFR [17] = molecular target: T6, EGFR; test: EGFR autophosphorylation in pancreatic cancer cell lines; format: cell-based; parameters: endogenous in cells; host or cells: panel of eight pancreatic cancer cell lines
HER3 [18] = molecular target: T5, HER3; test: HER3 tyrosine phosphorylation ELISA, antibodies with or without tyrosine kinase inhibitor; format: cell-based; parameters: endogenous in cells; host or cells: N87; tyrosine phosphorylation of HER3: dose or concentration left out as unconfirmed; conditions: 24 hours; for tyrosine phosphorylation levels of HER3: 20 μg/ml antibody

T2 sequence (P21860 20-1342): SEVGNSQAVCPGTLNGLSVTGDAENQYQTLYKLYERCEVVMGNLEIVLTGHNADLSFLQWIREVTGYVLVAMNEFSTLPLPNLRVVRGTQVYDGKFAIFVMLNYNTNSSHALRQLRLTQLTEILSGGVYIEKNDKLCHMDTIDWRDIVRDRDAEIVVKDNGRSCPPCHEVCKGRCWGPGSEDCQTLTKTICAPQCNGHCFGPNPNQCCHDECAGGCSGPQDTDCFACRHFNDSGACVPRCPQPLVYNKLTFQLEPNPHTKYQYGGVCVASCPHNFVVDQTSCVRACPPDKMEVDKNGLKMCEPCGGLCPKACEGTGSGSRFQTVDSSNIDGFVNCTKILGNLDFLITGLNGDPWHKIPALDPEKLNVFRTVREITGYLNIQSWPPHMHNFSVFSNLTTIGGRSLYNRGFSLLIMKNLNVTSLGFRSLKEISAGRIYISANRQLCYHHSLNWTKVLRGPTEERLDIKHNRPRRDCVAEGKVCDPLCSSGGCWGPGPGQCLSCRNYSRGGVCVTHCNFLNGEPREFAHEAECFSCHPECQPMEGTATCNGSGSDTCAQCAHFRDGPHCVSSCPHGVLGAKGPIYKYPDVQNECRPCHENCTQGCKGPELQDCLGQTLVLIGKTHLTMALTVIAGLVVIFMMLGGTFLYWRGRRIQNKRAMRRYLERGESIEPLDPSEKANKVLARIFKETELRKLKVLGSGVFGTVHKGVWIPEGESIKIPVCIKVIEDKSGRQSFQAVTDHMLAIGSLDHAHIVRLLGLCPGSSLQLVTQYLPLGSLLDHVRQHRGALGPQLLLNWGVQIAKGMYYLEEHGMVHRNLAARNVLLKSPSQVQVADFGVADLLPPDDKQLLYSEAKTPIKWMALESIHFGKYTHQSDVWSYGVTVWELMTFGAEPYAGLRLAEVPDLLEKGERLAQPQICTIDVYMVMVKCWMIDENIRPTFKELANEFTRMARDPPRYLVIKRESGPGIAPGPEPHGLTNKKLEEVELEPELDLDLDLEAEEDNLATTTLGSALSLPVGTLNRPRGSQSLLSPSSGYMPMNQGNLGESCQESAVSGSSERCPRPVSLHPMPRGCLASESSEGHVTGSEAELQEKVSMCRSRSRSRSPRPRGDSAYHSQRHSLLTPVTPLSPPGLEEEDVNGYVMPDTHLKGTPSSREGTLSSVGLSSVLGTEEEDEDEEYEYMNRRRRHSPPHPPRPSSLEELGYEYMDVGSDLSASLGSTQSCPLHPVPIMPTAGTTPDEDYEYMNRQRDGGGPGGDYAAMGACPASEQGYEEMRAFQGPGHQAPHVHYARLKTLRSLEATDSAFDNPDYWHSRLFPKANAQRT
T5 sequence (P21860 20-1342): as above
T1 sequence (P21860 20-643 limits assumed): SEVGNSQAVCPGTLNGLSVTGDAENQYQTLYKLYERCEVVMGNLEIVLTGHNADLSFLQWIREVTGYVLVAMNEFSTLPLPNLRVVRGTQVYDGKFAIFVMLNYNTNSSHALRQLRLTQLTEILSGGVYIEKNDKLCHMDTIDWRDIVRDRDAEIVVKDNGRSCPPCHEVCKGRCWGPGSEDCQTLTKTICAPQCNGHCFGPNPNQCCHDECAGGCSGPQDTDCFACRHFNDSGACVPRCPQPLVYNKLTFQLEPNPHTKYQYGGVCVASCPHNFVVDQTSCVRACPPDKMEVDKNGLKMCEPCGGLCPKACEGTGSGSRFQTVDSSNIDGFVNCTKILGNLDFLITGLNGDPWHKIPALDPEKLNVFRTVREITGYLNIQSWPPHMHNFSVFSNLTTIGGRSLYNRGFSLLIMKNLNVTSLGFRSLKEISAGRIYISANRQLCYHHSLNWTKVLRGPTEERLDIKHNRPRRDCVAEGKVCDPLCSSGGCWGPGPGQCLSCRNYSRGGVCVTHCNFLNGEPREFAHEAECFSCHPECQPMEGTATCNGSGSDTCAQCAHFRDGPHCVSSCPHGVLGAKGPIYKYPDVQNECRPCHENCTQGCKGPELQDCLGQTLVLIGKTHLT
T3 sequence (P21860 20-643 limits assumed): as above

B1: 1A5: ligand-independent HER3 antibody; heavy chain variable region SEQ ID NO:1, light chain variable region SEQ ID NO:2 (antibody, V domains shown)
VH: MEWIWIFLFIFSGTAGVHSQVQLQQSGAELARPGASVKLSCKASGYTFTDNYINWMKQRPGQGLEWIGEIYPGSGNTYYNEKFKGKATLTADKSSSTAYMQLSSLTSEESAVYFCARSPNLRLYYFDYWGQGTTLTVSS
VL: MVSTSQLLGLLLFWTSASRCDIVMTQSPATLSVTPGDRVSLSCRASQSINDYLYWYQQKLHESPRLLIKFASHSISGIPSRFSGSGSGSDFTLSINSVEPEDVGVYYCQNGHSFPLTFGAGTKLELK
For B1, the “blocking of NRG1 binding to HER3 (ELISA)” value (recombinant soluble HER3 [1]) was “failed in block NRG1 binding to HER3; also recorded: does not block ligand binding to HER3”, the “blocking of NRG1 binding to HER3 (flow cytometry)” value [2] was “failed to block NRG1 binding to HER3; also recorded: does not block ligand binding to HER3” and the “binding specificity by ELISA” value [3] was “specifically bind HER3; also recorded: specific binding”. The “autophosphorylation of HER2, 1A5 with lapatinib” value (HER2 [4]; in combination with lapatinib) was “significantly reduced levels of HER2 autophosphorylation; also recorded: reduced the levels of HER2 autophosphorylation to a greater extent than the 1A5 antibody or lapatinib alone”, the “autophosphorylation of HER2” value (HER2 [4]; single agents) was “partially inhibited autophosphorylation of HER2” and the “epitopes of HER3 bound” value (recombinant soluble HER3 [5]) was “bind different epitopes of HER3; also recorded: recognize different epitopes on HER3”. For the same molecule, the “autophosphorylation of HER3” value (HER3 [6]) was “inhibited autophosphorylation of HER3 in all HER3 positive cell lines except for Panc1; also recorded: inhibited autophosphorylation of HER3 in all HER3 positive cell lines, except Panc 1”, the tumor volume ([7]; antibodies or lapatinib alone) was “had the greatest tumor volume reducing effect; also recorded: reduces tumor volume” and the tumor volume ([7]; in combination with lapatinib) was “synergistically reduces tumor volume”. The tumor volume ([8]; antibodies without Erbitux) was “reduced tumor volume”, the tumor volume ([8]; in combination with Erbitux) was “reduced tumor volume more than administration of Erbitux alone” and the “inhibition of ligand-independent activation of HER3 in a panel of human cancer cell lines” value (HER3 [9]; 20 μg/ml 1A5, 24 hours) was “inhibition of ligand-independent activation of HER3 in a panel of human cancer cells lines”. The “inhibition of autophosphorylation of HER3” value (HER3 [9]; N87, BT474, ZR75-30, Panc 2.03 cells, increasing concentrations, 24 hours) was “capable of inhibiting autophosphorylation of HER3 to a greater extent than the ligand-dependent 3D4 antibody; also recorded: dose-dependent inhibition of ligand-independent activation (autophosphorylation) of HER3”, the tumor volume [10] was “synergistically reduces tumor volume” and the “tyrosine phosphorylation level of HER2” value (HER2 [11]; N87 cells) was “did not affect the level of tyrosine phosphorylation for EGFR or HER2”. For the same molecule, the “tyrosine phosphorylation levels of HER2” value (HER2 [11]; ZR75-30 cells, 20 μg/ml antibody) was “did not affect tyrosine phosphorylation levels of HER2”, the “apoptosis of DR5-resistant ZR75-1 cells” value [12] was “apoptosis of the DR5-resistant ZR75-1 cells was observed” and the “binding specificity by flow cytometry” value [13] was “specifically bind HER3”. The tumor volume [14] was “synergistically reduces tumor volume”, the “tyrosine phosphorylation levels of EGFR” value (EGFR [15]; A549 cells, 20 μg/ml antibody, without Erlotinib) was “did not affect tyrosine phosphorylation levels of EGFR” and the “tyrosine phosphorylation level of EGFR” value (EGFR [15]; N87 cells, 20 mg/ml antibody, without lapatinib) was “did not affect the level of tyrosine phosphorylation for EGFR or HER2”. For the same molecule, the “inhibition of ligand-dependent activation of HER3” value (HER3 [16]) was “capable of inhibiting ligand-dependent activation of HER3 to a lesser extent than the ligand-dependent 3D4 antibody”, the “autophosphorylation of EGFR, 1A5 with erlotinib” value (EGFR [17]; in combination with erlotinib) was “capable of enhancing the inhibitory activity of erlotinib; also recorded: able to enhance the inhibitory activity of erlotinib” and the “autophosphorylation of EGFR, 1A5 with lapatinib” value (EGFR [17]; in combination with lapatinib) was “not able to enhance the activity of lapatinib”. For the same molecule, the “autophosphorylation of EGFR” value (EGFR [17]; single agents) was “partially inhibited EGFR autophosphorylation in a HER3-dependent fashion”, the “tyrosine phosphorylation levels of HER3, effect of adding Erlotinib” value (HER3 [18]; A549 cells, 20 μg/ml antibody with 100 nM Erlotinib) was “enhanced” and the “tyrosine phosphorylation levels of HER3” value (HER3 [18]; A549 cells, without Erlotinib) was “reduced the tyrosine-phosphorylation levels of HER3”. The “tyrosine phosphorylation of HER3” value (HER3 [18]; N87 cells, without lapatinib) was “reduced the tyrosine phosphorylation of HER3”, the “tyrosine phosphorylation of HER3, effect of adding lapatinib” value (HER3 [18]; N87 cells, with 100 nM lapatinib) was “enhanced” and the “tyrosine phosphorylation levels of HER3, effect of adding lapatinib” value (HER3 [18]; ZR75-30 cells, 20 μg/ml antibody with 100 nM lapatinib) was “enhanced”. For the same molecule, the “tyrosine phosphorylation levels of HER3” value (HER3 [18]; ZR75-30 cells, without lapatinib) was “reduced the tyrosine phosphorylation levels of HER3”.
